Assay results: paper PMC3167946 (Vaccine, 2011)

Molecular target: Envelope glycoprotein gp120Bal (HIV-1 isolate BaL (subtype B), clone …, UniProt Q6TAP7, strain)
Experiment: ELISA

B1: human mature b12 scFv (scFv, V domains shown)
VH: QVQLVQSGAEVKKPGASVKVSCQASGYRFSNFVIHWVRQAPGQRFEWMGWINPYNGNKEFSAKFQDRVTFTADTSANTAYMELRSLRSADTAVYYCARVGPYSWDDSPQDNYYMDVWGKGTTVIVSS
VL: EIVLTQSPGTLSLSPGERATFSCRSSHSIRSRRVAWYQHKPGQAPRLVIHGVSNRASGISDRFSGSGSGTDFTLTITRVEPEDFALYYCQVYGASSYTFGQGTKLERK
Binder B1 has an EC50 of 0.3 nM.
